Source: patent US10677782B2, “Methods of determining interferon having direct inhibitory effects on tumors and uses thereof” (SUPERLAB FAR EAST LIMITED, priority 2013, dated 2020)

Tests used:
[1] = system: Human Colon Cancer HT-29 Xenografts; test: Human colon cancer HT-29 xenografts in nude mice (Example 3); assay type: in vivo; conditions: for TV (mm^3, mean ± SD) (D0): day 0, start of treatment; for TV (mm^3, mean ± SD) (D28): day 28
Procedure: (§1) Before commencement of this study, the xenografts were passaged twice in nude mice. Under sterile conditions, well-grown tumors were cut into 1.5 mm^3 fragments and one such fragment was injected by trocar needle into the right flank of each study animal. […] Individual tumor size (length and width) was measured twice per week with microcalipers. Tumor volume (V) was calculated using the formula: V=(length×width^2)/2. Individual relative tumor volume (RTV) was calculated using the formula: RTV=Vt/V0, where Vt is the tumor volume on the day of measurement and V0 is the tumor volume on the day of first treatment. Therapeutic effect of the test article or control article was expressed in terms of TIC (%), using the formula: TIC (%) (mean RTV of the treated group/mean RTV of the control group)×100%; and in terms of % Inhibition, using the formula: % Inhibition=100%−T/C %.
Then, 1.5 mm^3 fragments were prepared for s.c. implantation into the test animals.

[2] = system: human lung cancer SPC-A4 xenografts; test: Human lung cancer SPC-A4 xenografts in nude mice (Example 4); assay type: in vivo; conditions: for TV (mm^3, mean ± SD) (D0): day 0, start of treatment; for TV (mm^3, mean ± SD) (D21): day 21
Procedure: as §1
The 1.5 mm^3 fragments were then used for s.c. implantation into the test animals.

Axin2 mRNA in A549 cells = test: qPCR of Wnt pathway target genes in A549 cells; assay type: cell-based, human; conditions: 10 μg/ml, 24 hr; Mock control set at 1
Procedure: (§2) After 24 hr of treatment, cellular total mRNA was isolated using TRIZOL Reagent and cDNA was synthesized and further subjected to qPCR, using specific primers of four (4) Wnt signaling downstream genes, Axin2, CD24, Survivin and ID2. Experiments were conducted in triplicate and normalized with the Mock group.
(§3) Total mRNA was isolated using TRIZOL Reagent (Invitrogen, Carlsbad, Calif.) according to the manufacturer's instructions. Complementary DNA (cDNA) was synthesized using a RT-PCR Kit (Cat #: FSQ-101, TOYOBO, Japan) according to the manufacturer's instructions and then subjected to qPCR with a SYBR Green PCR kit (Cat #: QPK-201, TOYOBO, Japan). The primers of the four Wnt pathway target genes were as follows: Axin2 sense primer: 5′-[…]-3′ (SEQ ID NO:8) and antisense primer: 5′-[…]-3′ (SEQ ID NO: 9); CD24 sense primer: 5′-[…]-3′ (SEQ ID NO: 10) andantisense primer: 5′-[…]-3′ (SEQ ID NO: 11); Survivin sense primer: 5′-[…]-3′ (SEQ ID NO: 12) and antisense primer: 5′-[…]-3′ (SEQ ID NO: 13) and ID2 sense primer: 5′-[…]-3′ (SEQ ID NO: 14) and antisense primer: 5′-[…]-3′ (SEQ ID NO: 15).
(§4) The amplification protocol consisted of incubations at 95° C. for 1 minute, 40 cycles (95° C. for 15 seconds, 60° C. for 15 seconds, 72° C. for 30 seconds). Incorporation of the SYBR Green dye into PCR products was monitored in real time with a Bio-Rad Detection System and subsequently analyzed using Bio-Rad CFX manager 2.1 software. The samples were pooled for each condition and run in duplicate. Treated samples were compared to Mock using the 2^−ΔΔCt method and plotted as fold change. GAPDH was used as the normalization control.

CD24 mRNA in A549 cells = test: qPCR of Wnt pathway target genes in A549 cells; assay type: cell-based, human; conditions: 10 μg/ml, 24 hr; Mock control set at 1
Procedure: as §2, §3, §4

ID2 mRNA in A549 cells = test: qPCR of Wnt pathway target genes in A549 cells; assay type: cell-based, human; conditions: 10 μg/ml, 24 hr; Mock control set at 1
Procedure: as §2, §3, §4

[3] = system: Survivin mRNA in A549 cells; test: qPCR of Wnt pathway target genes in A549 cells; assay type: cell-based, human; conditions: 10 μg/ml, 24 hr; Mock control set at 1
Procedure: as §2, §3, §4

[4] = 0.05 mg/mouse i.t. every other day
[5] = 0.10 mg/mouse i.t. every other day
[6] = 0.15 mg/mouse i.t. every other day

B1: rSIFN-co: Recombinant super-compound interferon; amino acid sequence SEQ ID NO: 1 (same as interferon alfacon-1), encoded by SEQ ID NO: 2, novel tertiary structure (protein)
chain: MCDLPQTHSLGNRRALILLAQMRRISPFSCLKDRHDFGFPQEEFDGNQFQKAQAISVLHEMIQQTFNLFSTKDSSAAWDESLLEKFYTELYQQLNDLEACVIQEVGVEETPLMNVDSILAVKKYFQRITLYLTEKKYSPCAWEVVRAEIMRSFSLSTNLQERLRRKE
modifications: Amino acid sequence of recombinant interferon
TV (mm^3, mean ± SD) (D0) [1, 4]: 130 ± 26 mm^3
TV (mm^3, mean ± SD) (D28) [1, 4]: 416 ± 166 mm^3
TV (mm^3, mean ± SD) (D0) [1, 5]: 128 ± 39 mm^3
TV (mm^3, mean ± SD) (D28) [1, 5]: 541 ± 196 mm^3
TV (mm^3, mean ± SD) (D0) [1, 6]: 131 ± 36 mm^3
TV (mm^3, mean ± SD) (D28) [1, 6]: 570 ± 144 mm^3
TV (mm^3, mean ± SD) (D0) [2, 4]: 170 ± 41 mm^3
TV (mm^3, mean ± SD) (D21) [2, 4]: 2244 ± 1043 mm^3
TV (mm^3, mean ± SD) (D0) [2, 5]: 168 ± 49 mm^3
TV (mm^3, mean ± SD) (D21) [2, 5]: 2388 ± 1544 mm^3
TV (mm^3, mean ± SD) (D0) [2, 6]: 169 ± 40 mm^3
TV (mm^3, mean ± SD) (D21) [2, 6]: 2284 ± 653 mm^3
relative expression level of Axin2 mRNA (Axin2 mRNA in A549 cells): about 0.4
relative expression level of CD24 mRNA (CD24 mRNA in A549 cells): about 0.4
relative expression level of ID2 mRNA (ID2 mRNA in A549 cells): about 0.4
relative expression level of Survivin mRNA [3]: about 0.4
